These results are taken from PMC6901573 (Scientific Reports, 2019).

The target of assay [1] is T1, IsdB (NEAT1 and NEAT2 domains connected by the helical linker), wild type (S. aureus, UniProt Q8NX66 125-485). The assay can be described thus: SPR. The following applies: both partners purified.
In assay [2] the target is T1, IsdB (NEAT1 and NEAT2 domains connected …). As to the kind of experiment: SPR. As to conditions: both partners purified. This is another data set of the same source.

T1 sequence (Q8NX66 125-485): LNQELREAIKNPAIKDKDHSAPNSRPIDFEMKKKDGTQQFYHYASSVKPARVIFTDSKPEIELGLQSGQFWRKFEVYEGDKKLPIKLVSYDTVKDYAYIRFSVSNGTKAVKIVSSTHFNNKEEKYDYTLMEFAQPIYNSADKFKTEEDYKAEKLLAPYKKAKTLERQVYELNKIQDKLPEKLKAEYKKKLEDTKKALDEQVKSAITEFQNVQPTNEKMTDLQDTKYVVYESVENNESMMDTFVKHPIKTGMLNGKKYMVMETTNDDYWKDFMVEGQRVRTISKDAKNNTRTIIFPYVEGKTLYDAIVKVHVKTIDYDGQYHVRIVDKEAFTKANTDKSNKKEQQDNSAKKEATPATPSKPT

B1: Human hemoglobin A, oxidized form (methemoglobin, MetHb) (complex)
chain 1: not shown
chain 2: not shown
For B1, the “KD of the first, reversible step of the two-state irreversible model” value (shortened to “KD of the first”) in assay [1] turned out to be 69 ± 1 nM; in assay [2] it was 70 ± 6 nM.

B2: Human beta-semihemoglobin, oxidized (met) form (complex)
chain 1: not shown
chain 2: not shown
Turning to B2, the “KD of the first” value in assay [2] came to 91 ± 5 nM.

B3: Human alpha-semihemoglobin, oxidized (met) form (complex)
chain 1: not shown
chain 2: not shown
As for B3, in assay [2], the “KD of the first” value came out at 108 ± 11 nM.
